# US11147859B2, “Diffusion enhancing compounds and their use alone or with thrombolytics” (Diffusion Pharmaceuticals LLC, priority 2009, dated 2021)
# B1: tPA: Tissue plasminogen activator, a protein thrombolytic agent (clot-busting drug); Genentech lots (protein, UniProt P00750 36-562, looked up)
# Tissue-type plasminogen …: SYQVICRDEKTQMIYQQHQSWLRPVLRSNRVEYCWCNSGRAQCHSVPVKSCSEPRCFNGGTCQQALYFSDFVCQCPEGFAGKCCEIDTRATCYEDQGISYRGTWSTAESGAECTNWNSSALAQKPYSGRRPDAIRLGLGNHNYCRNPDRDSKPWCYVFKAGKYSSEFCSTPACSEGNSDCYFGNGSAYRGTHSLTESGASCLPWNSMILIGKVYTAQNPSAQALGLGKHNYCRNPDGDAKPWCHVLKNRRLTWEYCDVPSCSTCGLRQYSQPQFRIKGGLFADIASHPWQAAIFAKHRRSPGERFLCGGILISSCWILSAAHCFQERFPPHHLTVILGRTYRVVPGEEEQKFEVEKYIVHKEFDDDTYDNDIALLQLKSDSSRCAQESSVVRTVCLPPADLQLPDWTECELSGYGKHEALSPFYSERLKEAHVRLYPSSRCTSQHLLNRTVTDNMLCAGDTRSGGPQANLHDACQGDSGGPLVCLNDGRMTLVGIISWGLGCGQKDVPGVYTKVTNYLDWIRDNMRP
# Test system: rabbit small clot embolic stroke model (RSCEM)
# Assay: Rabbit small clot embolic stroke model (RSCEM), quantal dose-response analysis of behavior
# Format: in vivo, Male New Zealand white rabbits
# Details: for group P50: Mean±SEM
# Source text: Methods: This model uses rabbits and is known as RSCEM. Male New Zealand white rabbits were anesthetized using isoflurane (5% induction, 2% maintenance by facemask), the bifurcation of the right carotid artery was exposed and the external carotid was ligated just distal to the bifurcation, where a catheter was inserted into the common carotid and secured with ligatures. The incision was closed around the catheter with the distal ends left accessible outside the neck; the catheter was filled with heparinized saline and plugged with an injection cap. Rabbits were allowed to recover from anesthesia for a minimum of 2 h until they behaved normally. After that time, microdots were prepared from blood drawn from a donor rabbit and allowed to clot at 37° C., as described in detail previously. Microclots were re-suspended in PBS, then washed and allowed to settle, followed by aspiration of the supernatant and spiking of the microclots with tracer quantities of 15-μm radiolabeled microspheres. The specific activity of the particles was determined by removing an aliquot, after which appropriate volumes of PBS solution were added so that a predetermined weight of clot particles were rapidly injected through the catheter and both the syringe and catheter were flushed with 5 ml of normal saline.
# Quantal Dose-Response Analysis: For behavioral analysis, a quantal dose-response data analysis technique was used as described previously. A wide range of lesion volumes is induced to generate both normal and abnormal animals with various behavioral deficits. […] Briefly, to evaluate the quantitative relationship between numbers of clots in the brain and neurological deficits (coma or death), logistic (S-shaped) curves are fitted by computer to the quantal dose-response data (see FIGS. 1 and 2).
# These parameters are measures of the amount of microclots (in mg) that produce neurologic dysfunction in 50% of a group of animals (P50). The P50 values are then calculated as described previously and are presented as Mean±SEM. […] The data were analyzed using the t-test. […]
molecule,measurement,setting,value
B1,group P50,tPA 3.3 mg/kg IV given 1 hour following embolization,2.48 ± 0.17 mg
same,group P50,tPA 3.3 mg/kg IV given 3 hours following embolization,1.00 ± 0.56 mg
same,effect on behavior / P50 value (in words),tPA given 3 hours following embolization,ineffective
